± gives the standard deviation of the averaged measurements.
Assays:
Saccharomyces cerevisiae [1] = test: protein stability index of tFT-peptide fusion (C-terminal peptide) (PSI (0-1 scale)); higher = more stable (slower turnover); conditions: genetic background: wild type; temperature: 30 C
Saccharomyces cerevisiae [2] = test: as above
Experimental: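 MPS profiling in S. cerevisiae of the tFT-X12 degron library: putative degron peptides plus stable controls, 12 aa, fused to the C-terminus of a sfGFP-mCherry timer. Cells are FACS-sorted into 8 mCherry/sfGFP bins and deep-sequenced. PSI runs from 0 (unstable) to 1 (stable). Backgrounds are wild type, das1Δ and doa10Δ at 30 °C, and wild type, das1Δ, cdc34-1 and cdc53-1 at 37 °C; 2-3 technical replicates each.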

[3] = genetic background: cdc34-1, temperature: 37 C
[4] = genetic background: cdc53-1, temperature: 37 C
[5] = genetic background: das1 deletion, temperature: 30 C
[6] = genetic background: das1 deletion, temperature: 37 C
[7] = genetic background: doa10 deletion, temperature: 30 C
[8] = genetic background: wild type, temperature: 30 C
[9] = genetic background: wild type, temperature: 37 C
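Also: PSI is a weighted mean of sequencing reads over stability bins, variants kept only with over 10 reads, mCherry proximal and sfGFP distal, peptide attached via GGGS linker.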

Row | Sequence | protein stability index (Saccharomyces cerevisiae [1]) | protein stability index (Saccharomyces cerevisiae [2]; [3]) | protein stability index (Saccharomyces cerevisiae [2]; [4]) | protein stability index (Saccharomyces cerevisiae [2]; [5]) | protein stability index (Saccharomyces cerevisiae [2]; [6]) | protein stability index (Saccharomyces cerevisiae [2]; [7]) | protein stability index (Saccharomyces cerevisiae [2]; [8]) | protein stability index (Saccharomyces cerevisiae [2]; [9])
1 | MSIWKIFIWRLG | 0.263 ± 0.019 | 0.524 ± 0.017 | 0.627 ± 0.037 | 0.494 ± 0.019 | 0.648 ± 0.028 | 0.132 ± 0.013 | 0.153 ± 0.024 | 0.2694 ± 0.00052
2 | PFRSAYYLLFLL | 0.205 ± 0.035 | 0.496 ± 0.048 | 0.6347 ± 0.0016 | 0.54 ± 0.013 | 0.6738 ± 0.00079 | 0.122 ± 0.015 | 0.118 ± 0.0092 | 0.161 ± 0.026
3 | GGIVLLVRVCGP | 0.46 ± 0.011 | 0.55 ± 0.016 | 0.636 ± 0.0091 | 0.436 ± 0.019 | 0.6149 ± 0.0012 | 0.389 ± 0.0083 | 0.422 ± 0.018 | 0.601 ± 0.025
4 | TVRLPLILPCVL | 0.4884 ± 0.0042 | 0.5752 ± 0.0049 | 0.573 ± 0.031 | 0.421 ± 0.028 | 0.5669 ± 0.0053 | 0.414 ± 0.0034 | 0.42 ± 0.025 | 0.55 ± 0.013
5 | WQILVRLIDFYT | 0.436 ± 0.0055 | 0.453 ± 0.011 | 0.446 ± 0.023 | 0.345 ± 0.034 | 0.5107 ± 0.0039 | 0.311 ± 0.0072 | 0.338 ± 0.0092 | 0.4889 ± 0.00098
6 | CASVCCFFAWIV | 0.416 ± 0.06 | 0.571 ± 0.028 | 0.623 ± 0.011 | 0.46 ± 0.046 | 0.5941 ± 0.0019 | 0.299 ± 0.017 | 0.323 ± 0.0068 | 0.4749 ± 0.00052
7 | LVFAFFLLSFFI | 0.425 ± 0.0078 | 0.478 ± 0.035 | 0.554 ± 0.015 | 0.478 ± 0.047 | 0.549 ± 0.00087 | 0.481 ± 0.025 | 0.466 ± 0.027 | 0.541 ± 0.02
8 | SVLVWFLVFLVW | 0.315 ± 0.012 | 0.209 ± 0.0046 | 0.235 ± 0.02 | 0.223 ± 0.028 | 0.3733 ± 0.0037 | 0.218 ± 0.019 | 0.211 ± 0.026 | 0.321 ± 0.042
9 | IVRSLFGYLCVV | 0.467 ± 0.037 | 0.571 ± 0.0099 | 0.609 ± 0.0076 | 0.524 ± 0.015 | 0.633 ± 0.0095 | 0.427 ± 0.0099 | 0.437 ± 0.022 | 0.569 ± 0.0066
